According to patent US20250341517A1 (published 2025):
Ends that are not written are not given here. FAM = carboxyfluorescein (FAM) fluorescent label

Columns and labels:
L2 peptide = molecular target: T1, L2 peptide; assay: FRET on microplate: FAM-L2 immobilised, TAMRA-H1 incubated
T1 construct: Synthetic 14-mer homologous to the FR3 or FR4 region of the light chain; also called L2 switching peptide; second peptide compound L2
T1 peptide: {FAM}-VYYCFQGSHVPFTK

Anti-CRP antibody(r) = molecular target: T2, Anti-CRP antibody(r); assay: labelled peptide on antibody immobilised on microplate; antigen CRP
T2 construct: also called rabbit IgG (CRP)

Anti-HRP antibody(r) [1] = molecular target: T3, Anti-HRP antibody(r); assay: labelled peptide on antibody immobilised on microplate; antigen HRP
T3 construct: Rabbit IgG, immobilised on a microplate; also called rabbit anti-HRP antibodies; anti-HRP antibody from a rabbit

Anti-hCG antibody(m) = molecular target: T4, Anti-hCG antibody(m); assay: labelled peptide on antibody immobilised on microplate; antigen hCG
T4 construct: also called mouse IgG (hCG)

Anti-HRP antibody(r) [2] = molecular target: T3, Anti-HRP antibody(r); assay: labelled peptide on immobilised rabbit anti-HRP antibody, papain cleavage
Anti-HBsAg antibody(g) = molecular target: T5, Anti-HBsAg antibody(g); assay: labelled peptide on antibody immobilised on microplate; antigen HBsAg
T5 construct: also called anti-HBsAg antibodies from goats; goat IgG (HBsAg)

C-reactive protein = molecular target: T6, C-reactive protein (UniProt P02741 19-224); assay: labelled peptide on protein immobilised on microplate; fluorescence at bottom
T6 construct: also called CRP
T6 sequence (looked up): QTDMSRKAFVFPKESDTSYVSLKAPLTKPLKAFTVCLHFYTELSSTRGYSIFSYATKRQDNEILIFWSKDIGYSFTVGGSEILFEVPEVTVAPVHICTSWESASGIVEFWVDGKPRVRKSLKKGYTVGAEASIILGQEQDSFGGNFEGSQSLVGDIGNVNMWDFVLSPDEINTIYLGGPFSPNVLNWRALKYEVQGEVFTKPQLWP

protein-A = protein-A (UniProt P38507 37-477); assay: as above
BSA = molecular target: T7, BSA (UniProt P02769 25-607); assay: as above
T7 construct: also called bovine serum albumin

[3] = molecular target: T8, anti-Inf-A binding antibody; assay: dissociation of labelled peptide from anti-Inf-A antibody on treatment with Inf-A; fluorescence
T8 construct: also called anti-Inf-A antibody; anti-inf A antibody

[4] = molecular target: T9, anti-Inf-B binding antibody; assay: dissociation of labelled peptide from anti-Inf-B antibody on treatment with Inf-B; fluorescence
T9 construct: also called anti-Inf-B antibody

Anti-HRP antibody(r) [5] = molecular target: T3, Anti-HRP antibody(r); assay: fluorescence in solution against HRP concentration (0.3 to 100 µM); peptide on immobilised rabbit anti-HRP antibody
Description: In this experiment, an anti-HRP antibody from a rabbit immobilized on a microplate was used as the binding antibody and HRP was used as the antigen.

T7 sequence (P02769 25-607 limits assumed): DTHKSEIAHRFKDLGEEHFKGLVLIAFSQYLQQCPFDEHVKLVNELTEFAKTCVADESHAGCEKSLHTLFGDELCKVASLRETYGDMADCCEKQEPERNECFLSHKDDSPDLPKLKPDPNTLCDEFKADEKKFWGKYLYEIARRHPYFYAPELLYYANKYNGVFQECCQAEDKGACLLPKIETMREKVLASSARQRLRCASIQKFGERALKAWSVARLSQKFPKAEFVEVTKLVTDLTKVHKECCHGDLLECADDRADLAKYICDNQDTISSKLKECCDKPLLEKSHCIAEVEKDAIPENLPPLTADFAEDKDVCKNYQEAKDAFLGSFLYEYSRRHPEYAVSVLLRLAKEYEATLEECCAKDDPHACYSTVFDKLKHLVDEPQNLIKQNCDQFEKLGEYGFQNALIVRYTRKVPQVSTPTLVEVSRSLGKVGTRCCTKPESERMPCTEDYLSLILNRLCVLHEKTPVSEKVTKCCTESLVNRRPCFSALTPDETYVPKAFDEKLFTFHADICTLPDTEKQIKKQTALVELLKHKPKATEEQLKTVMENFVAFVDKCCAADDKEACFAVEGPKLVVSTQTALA

B1: H1 peptide (peptide)
peptide: SYWIHWVKQRPGQGLEWIGE
modifications: not fully specified (N-terminus)
notes: Synthetic 20-mer homologous to the FR2 region of the heavy chain; The fluorescent label differs between experiments; also called H1 switching peptide; third peptide compound H1
binding result (L2 peptide): binds | change (%) of fluorescence at bottom (B) of microplate (Anti-CRP antibody(r)): -26.8% | change (%) of fluorescence in solution (S) (Anti-CRP antibody(r)): 152% | fluorescence intensity at bottom (B) of microplate after antigen binding (Anti-CRP antibody(r)): 3600 | fluorescence intensity at bottom (B) of microplate before antigen binding (Anti-CRP antibody(r)): 4910 | fluorescence intensity in solution (S) after antigen binding (Anti-CRP antibody(r)): 5660 | fluorescence intensity in solution (S) before antigen binding (Anti-CRP antibody(r)): 2240 | change (%) of fluorescence at bottom (B) of microplate (Anti-HRP antibody(r) [1]): -87.7% | change (%) of fluorescence in solution (S) (Anti-HRP antibody(r) [1]): 746% | fluorescence intensity at bottom (B) of microplate after antigen binding (Anti-HRP antibody(r) [1]): 1450 | fluorescence intensity at bottom (B) of microplate before antigen binding (Anti-HRP antibody(r) [1]): 11800 | fluorescence intensity in solution (S) after antigen binding (Anti-HRP antibody(r) [1]): 22000 | fluorescence intensity in solution (S) before antigen binding (Anti-HRP antibody(r) [1]): 2600 | change (%) of fluorescence at bottom (B) of microplate (Anti-hCG antibody(m)): -65.6% | change (%) of fluorescence in solution (S) (Anti-hCG antibody(m)): 206% | fluorescence intensity at bottom (B) of microplate after antigen binding (Anti-hCG antibody(m)): 1940 | fluorescence intensity at bottom (B) of microplate before antigen binding (Anti-hCG antibody(m)): 5650 | fluorescence intensity in solution (S) after antigen binding (Anti-hCG antibody(m)): 3920 | fluorescence intensity in solution (S) before antigen binding (Anti-hCG antibody(m)): 1280 | decrease of fluorescence intensity at the bottom of the microplate after papain treatment (Anti-HRP antibody(r) [2]): 84.3% | increase of fluorescence intensity in the solution after papain treatment (Anti-HRP antibody(r) [2]): 2180% | change (%) of fluorescence at bottom (B) of microplate (Anti-HBsAg antibody(g)): -58.9% | change (%) of fluorescence in solution (S) (Anti-HBsAg antibody(g)): 410% | fluorescence intensity at bottom (B) of microplate after antigen binding (Anti-HBsAg antibody(g)): 4620 | fluorescence intensity at bottom (B) of microplate before antigen binding (Anti-HBsAg antibody(g)): 11200 | fluorescence intensity in solution (S) after antigen binding (Anti-HBsAg antibody(g)): 11500 | fluorescence intensity in solution (S) before antigen binding (Anti-HBsAg antibody(g)): 2240 | binding result (C-reactive protein): no binding | binding result (protein-A): no binding | binding result (BSA): no binding | relative change in fluorescence signal [3]: 130% | relative change in fluorescence signal [4]: 145% | Kd (Anti-HRP antibody(r) [5]): 1.65 µM
